According to patent US20260317437 (published 2026):

B1: VL S93H (antibody, V domains shown)
VH: EVQLVESGGGLVQPGGSLRLSCAASGFNIYYNYIHWVRQAPGKGLEWVAEFSPYSGSTYYADSVKGRFTISADTSKNTAYLQMNSLRAEDTAVYYCARSAAIVDWYDYFKGFDYWGQGTLVTVSS
VL: DIQMTQSPSSLSASVGDRVTITCRASQSVSSAVAWYQQKPGKAPKLLIYSASSLYSGVPSRFSGSRSGTDFTLTISSLQPEDFATYYCQQYGHYLYTFGQGTKVEIK
B2: VL S93I (antibody, V domains shown)
VH: EVQLVESGGGLVQPGGSLRLSCAASGFNIYYNYIHWVRQAPGKGLEWVAEFSPYSGSTYYADSVKGRFTISADTSKNTAYLQMNSLRAEDTAVYYCARSAAIVDWYDYFKGFDYWGQGTLVTVSS
VL: DIQMTQSPSSLSASVGDRVTITCRASQSVSSAVAWYQQKPGKAPKLLIYSASSLYSGVPSRFSGSRSGTDFTLTISSLQPEDFATYYCQQYGIYLYTFGQGTKVEIK
B3: VH Y30T (antibody, V domains shown)
VH: EVQLVESGGGLVQPGGSLRLSCAASGFNITYNYIHWVRQAPGKGLEWVAEFSPYSGSTYYADSVKGRFTISADTSKNTAYLQMNSLRAEDTAVYYCARSAAIVDWYDYFKGFDYWGQGTLVTVSS
VL: DIQMTQSPSSLSASVGDRVTITCRASQSVSSAVAWYQQKPGKAPKLLIYSASSLYSGVPSRFSGSRSGTDFTLTISSLQPEDFATYYCQQYGSYLYTFGQGTKVEIK
B4: VL Y94V (antibody, V domains shown)
VH: EVQLVESGGGLVQPGGSLRLSCAASGFNIYYNYIHWVRQAPGKGLEWVAEFSPYSGSTYYADSVKGRFTISADTSKNTAYLQMNSLRAEDTAVYYCARSAAIVDWYDYFKGFDYWGQGTLVTVSS
VL: DIQMTQSPSSLSASVGDRVTITCRASQSVSSAVAWYQQKPGKAPKLLIYSASSLYSGVPSRFSGSRSGTDFTLTISSLQPEDFATYYCQQYGSVLYTFGQGTKVEIK
B5: VH Y30L (antibody, V domains shown)
VH: EVQLVESGGGLVQPGGSLRLSCAASGFNILYNYIHWVRQAPGKGLEWVAEFSPYSGSTYYADSVKGRFTISADTSKNTAYLQMNSLRAEDTAVYYCARSAAIVDWYDYFKGFDYWGQGTLVTVSS
VL: DIQMTQSPSSLSASVGDRVTITCRASQSVSSAVAWYQQKPGKAPKLLIYSASSLYSGVPSRFSGSRSGTDFTLTISSLQPEDFATYYCQQYGSYLYTFGQGTKVEIK
B6: VH Y30A (antibody, V domains shown)
VH: EVQLVESGGGLVQPGGSLRLSCAASGFNIAYNYIHWVRQAPGKGLEWVAEFSPYSGSTYYADSVKGRFTISADTSKNTAYLQMNSLRAEDTAVYYCARSAAIVDWYDYFKGFDYWGQGTLVTVSS
VL: DIQMTQSPSSLSASVGDRVTITCRASQSVSSAVAWYQQKPGKAPKLLIYSASSLYSGVPSRFSGSRSGTDFTLTISSLQPEDFATYYCQQYGSYLYTFGQGTKVEIK
B7: VL Y91L (antibody, V domains shown)
VH: EVQLVESGGGLVQPGGSLRLSCAASGFNIYYNYIHWVRQAPGKGLEWVAEFSPYSGSTYYADSVKGRFTISADTSKNTAYLQMNSLRAEDTAVYYCARSAAIVDWYDYFKGFDYWGQGTLVTVSS
VL: DIQMTQSPSSLSASVGDRVTITCRASQSVSSAVAWYQQKPGKAPKLLIYSASSLYSGVPSRFSGSRSGTDFTLTISSLQPEDFATYYCQQLGSYLYTFGQGTKVEIK
B8: VH Y31F (antibody, V domains shown)
VH: EVQLVESGGGLVQPGGSLRLSCAASGFNIYFNYIHWVRQAPGKGLEWVAEFSPYSGSTYYADSVKGRFTISADTSKNTAYLQMNSLRAEDTAVYYCARSAAIVDWYDYFKGFDYWGQGTLVTVSS
VL: DIQMTQSPSSLSASVGDRVTITCRASQSVSSAVAWYQQKPGKAPKLLIYSASSLYSGVPSRFSGSRSGTDFTLTISSLQPEDFATYYCQQYGSYLYTFGQGTKVEIK
B9: VL Y94Q (antibody, V domains shown)
VH: EVQLVESGGGLVQPGGSLRLSCAASGFNIYYNYIHWVRQAPGKGLEWVAEFSPYSGSTYYADSVKGRFTISADTSKNTAYLQMNSLRAEDTAVYYCARSAAIVDWYDYFKGFDYWGQGTLVTVSS
VL: DIQMTQSPSSLSASVGDRVTITCRASQSVSSAVAWYQQKPGKAPKLLIYSASSLYSGVPSRFSGSRSGTDFTLTISSLQPEDFATYYCQQYGSQLYTFGQGTKVEIK
B10: VH Y30I (antibody, V domains shown)
VH: EVQLVESGGGLVQPGGSLRLSCAASGFNIIYNYIHWVRQAPGKGLEWVAEFSPYSGSTYYADSVKGRFTISADTSKNTAYLQMNSLRAEDTAVYYCARSAAIVDWYDYFKGFDYWGQGTLVTVSS
VL: DIQMTQSPSSLSASVGDRVTITCRASQSVSSAVAWYQQKPGKAPKLLIYSASSLYSGVPSRFSGSRSGTDFTLTISSLQPEDFATYYCQQYGSYLYTFGQGTKVEIK
B11: VL Y94S (antibody, V domains shown)
VH: EVQLVESGGGLVQPGGSLRLSCAASGFNIYYNYIHWVRQAPGKGLEWVAEFSPYSGSTYYADSVKGRFTISADTSKNTAYLQMNSLRAEDTAVYYCARSAAIVDWYDYFKGFDYWGQGTLVTVSS
VL: DIQMTQSPSSLSASVGDRVTITCRASQSVSSAVAWYQQKPGKAPKLLIYSASSLYSGVPSRFSGSRSGTDFTLTISSLQPEDFATYYCQQYGSSLYTFGQGTKVEIK
B12: VL Y91T (antibody, V domains shown)
VH: EVQLVESGGGLVQPGGSLRLSCAASGFNIYYNYIHWVRQAPGKGLEWVAEFSPYSGSTYYADSVKGRFTISADTSKNTAYLQMNSLRAEDTAVYYCARSAAIVDWYDYFKGFDYWGQGTLVTVSS
VL: DIQMTQSPSSLSASVGDRVTITCRASQSVSSAVAWYQQKPGKAPKLLIYSASSLYSGVPSRFSGSRSGTDFTLTISSLQPEDFATYYCQQTGSYLYTFGQGTKVEIK
B13: VL S93V (antibody, V domains shown)
VH: EVQLVESGGGLVQPGGSLRLSCAASGFNIYYNYIHWVRQAPGKGLEWVAEFSPYSGSTYYADSVKGRFTISADTSKNTAYLQMNSLRAEDTAVYYCARSAAIVDWYDYFKGFDYWGQGTLVTVSS
VL: DIQMTQSPSSLSASVGDRVTITCRASQSVSSAVAWYQQKPGKAPKLLIYSASSLYSGVPSRFSGSRSGTDFTLTISSLQPEDFATYYCQQYGVYLYTFGQGTKVEIK
B14: VL Y91H (antibody, V domains shown)
VH: EVQLVESGGGLVQPGGSLRLSCAASGFNIYYNYIHWVRQAPGKGLEWVAEFSPYSGSTYYADSVKGRFTISADTSKNTAYLQMNSLRAEDTAVYYCARSAAIVDWYDYFKGFDYWGQGTLVTVSS
VL: DIQMTQSPSSLSASVGDRVTITCRASQSVSSAVAWYQQKPGKAPKLLIYSASSLYSGVPSRFSGSRSGTDFTLTISSLQPEDFATYYCQQHGSYLYTFGQGTKVEIK
B15: VH Y30N (antibody, V domains shown)
VH: EVQLVESGGGLVQPGGSLRLSCAASGFNINYNYIHWVRQAPGKGLEWVAEFSPYSGSTYYADSVKGRFTISADTSKNTAYLQMNSLRAEDTAVYYCARSAAIVDWYDYFKGFDYWGQGTLVTVSS
VL: DIQMTQSPSSLSASVGDRVTITCRASQSVSSAVAWYQQKPGKAPKLLIYSASSLYSGVPSRFSGSRSGTDFTLTISSLQPEDFATYYCQQYGSYLYTFGQGTKVEIK
B16: VL Y91D (antibody, V domains shown)
VH: EVQLVESGGGLVQPGGSLRLSCAASGFNIYYNYIHWVRQAPGKGLEWVAEFSPYSGSTYYADSVKGRFTISADTSKNTAYLQMNSLRAEDTAVYYCARSAAIVDWYDYFKGFDYWGQGTLVTVSS
VL: DIQMTQSPSSLSASVGDRVTITCRASQSVSSAVAWYQQKPGKAPKLLIYSASSLYSGVPSRFSGSRSGTDFTLTISSLQPEDFATYYCQQDGSYLYTFGQGTKVEIK
B17: VH S54R (antibody, V domains shown)
VH: EVQLVESGGGLVQPGGSLRLSCAASGFNIYYNYIHWVRQAPGKGLEWVAEFSPYRGSTYYADSVKGRFTISADTSKNTAYLQMNSLRAEDTAVYYCARSAAIVDWYDYFKGFDYWGQGTLVTVSS
VL: DIQMTQSPSSLSASVGDRVTITCRASQSVSSAVAWYQQKPGKAPKLLIYSASSLYSGVPSRFSGSRSGTDFTLTISSLQPEDFATYYCQQYGSYLYTFGQGTKVEIK
B18: VH W100aH (antibody, V domains shown)
VH: EVQLVESGGGLVQPGGSLRLSCAASGFNIYYNYIHWVRQAPGKGLEWVAEFSPYSGSTYYADSVKGRFTISADTSKNTAYLQMNSLRAEDTAVYYCARSAAIVDHYDYFKGFDYWGQGTLVTVSS
VL: DIQMTQSPSSLSASVGDRVTITCRASQSVSSAVAWYQQKPGKAPKLLIYSASSLYSGVPSRFSGSRSGTDFTLTISSLQPEDFATYYCQQYGSYLYTFGQGTKVEIK
B19: VL Y94T (antibody, V domains shown)
VH: EVQLVESGGGLVQPGGSLRLSCAASGFNIYYNYIHWVRQAPGKGLEWVAEFSPYSGSTYYADSVKGRFTISADTSKNTAYLQMNSLRAEDTAVYYCARSAAIVDWYDYFKGFDYWGQGTLVTVSS
VL: DIQMTQSPSSLSASVGDRVTITCRASQSVSSAVAWYQQKPGKAPKLLIYSASSLYSGVPSRFSGSRSGTDFTLTISSLQPEDFATYYCQQYGSTLYTFGQGTKVEIK
B20: VH Y30E (antibody, V domains shown)
VH: EVQLVESGGGLVQPGGSLRLSCAASGFNIEYNYIHWVRQAPGKGLEWVAEFSPYSGSTYYADSVKGRFTISADTSKNTAYLQMNSLRAEDTAVYYCARSAAIVDWYDYFKGFDYWGQGTLVTVSS
VL: DIQMTQSPSSLSASVGDRVTITCRASQSVSSAVAWYQQKPGKAPKLLIYSASSLYSGVPSRFSGSRSGTDFTLTISSLQPEDFATYYCQQYGSYLYTFGQGTKVEIK
B21: VL Y94A (antibody, V domains shown)
VH: EVQLVESGGGLVQPGGSLRLSCAASGFNIYYNYIHWVRQAPGKGLEWVAEFSPYSGSTYYADSVKGRFTISADTSKNTAYLQMNSLRAEDTAVYYCARSAAIVDWYDYFKGFDYWGQGTLVTVSS
VL: DIQMTQSPSSLSASVGDRVTITCRASQSVSSAVAWYQQKPGKAPKLLIYSASSLYSGVPSRFSGSRSGTDFTLTISSLQPEDFATYYCQQYGSALYTFGQGTKVEIK
B22: VL Y94N (antibody, V domains shown)
VH: EVQLVESGGGLVQPGGSLRLSCAASGFNIYYNYIHWVRQAPGKGLEWVAEFSPYSGSTYYADSVKGRFTISADTSKNTAYLQMNSLRAEDTAVYYCARSAAIVDWYDYFKGFDYWGQGTLVTVSS
VL: DIQMTQSPSSLSASVGDRVTITCRASQSVSSAVAWYQQKPGKAPKLLIYSASSLYSGVPSRFSGSRSGTDFTLTISSLQPEDFATYYCQQYGSNLYTFGQGTKVEIK

The binders below were run against GCGR extracellular domain (human, UniProt P47871) (assay: SPR).
GCGR extracellular domain, sequence (P47871 26-477): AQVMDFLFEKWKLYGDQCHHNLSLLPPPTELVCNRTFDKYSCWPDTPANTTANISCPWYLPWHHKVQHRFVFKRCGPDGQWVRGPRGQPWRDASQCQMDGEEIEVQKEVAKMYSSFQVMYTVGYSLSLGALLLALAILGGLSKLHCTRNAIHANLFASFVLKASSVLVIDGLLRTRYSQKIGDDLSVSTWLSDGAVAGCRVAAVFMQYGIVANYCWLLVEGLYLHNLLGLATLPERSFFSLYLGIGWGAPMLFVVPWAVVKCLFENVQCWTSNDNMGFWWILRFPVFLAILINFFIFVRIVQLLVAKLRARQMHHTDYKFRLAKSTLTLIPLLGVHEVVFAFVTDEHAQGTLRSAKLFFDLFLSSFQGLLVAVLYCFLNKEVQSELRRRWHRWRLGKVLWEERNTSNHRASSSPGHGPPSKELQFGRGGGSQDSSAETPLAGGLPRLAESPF
B1 showed a Kd of 2.38 nM. In the case of B2, the Kd is reported as 2.28 nM. Work on B3 yielded a Kd of 24.8 nM. In the case of B4, the Kd is reported as 2.46 nM. In the case of B5, the Kd is reported as 4.63 nM. For B6, the Kd was 21.3 nM. B7 was tested, and the Kd was 4.2 nM. For B8, the Kd was 6.94 nM. For B9, the Kd was 2.08 nM. Work on B10 yielded a Kd of 5.54 nM. B11 was tested, and the Kd was 2.08 nM. Binder B12 has a Kd of 2.42 nM. With B13 the Kd was 1.74 nM. For B14, the Kd was 2.82 nM. In the case of B15, the Kd is reported as 103 nM. For B16, the Kd was 7.08 nM. B17 showed a Kd of 16 nM. B18 showed a Kd of 41.7 nM. Work on B19 yielded a Kd of 2.71 nM. B20 was tested, and the Kd was 45.1 nM. Binder B21 has a Kd of 2.64 nM. With B22 the Kd was 1.84 nM.
